Measurements as given in PMC7355856 (2020).

Experiments:
α-synuclein [1] = molecular target: T1, α-synuclein (human, UniProt P37840 1-140); assay: SPR
α-synuclein [2] = molecular target: T1, α-synuclein; assay: SPR; remark: listed apart in the source

B1: prolyl oligopeptidase (POP) (enzyme)
chain: MLSLQYPDVYRDETAVQDYHGHKICDPYAWLEDPDSEQTKAFVEAQNKITVPFLEQCPIRGLYKERMTELYDYPKYSCHFKKGKRYFYFYNTGLQNQRVLYVQDSLEGEARVFLDPNILSDDGTVALRGYAFSEDGEYFAYGLSASGSDWVTIKFMKVDGAKELPDVLERVKFSCMAWTHDGKGMFYNSYPQQDGKSDGTETSTNLHQKLYYHVLGTDQSEDILCAEFPDEPKWMGGAELSDDGRYVLLSIREGCDPVNRLWYCDLQQESSGIAGILKWVKLIDNFEGEYDYVTNEGTVFTFKTNRQSPNYRVINIDFRDPEESKWKVLVPEHEKDVLEWIACVRSNFLVLCYLHDVKNILQLHDLTTGALLKTFPLDVGSIVGYSGQKKDTEIFYQFTSFLSPGIIYHCDLTKEELEPRVFREVTVKGIDASDYQTVQIFYPSKDGTKIPMFIVHKKGIKLDGSHPAFLYGYGGFNISITPNYSVSRLIFVRHMGGILAVANIRGGGEYGETWHKGGILANKQNCFDDFQCAAEYLIKEGYTSPKRLTINGGSNGGLLVAACANQRPDLFGCVIAQVGVMDMLKFHKYTIGHAWTTDYGCSDSKQHFEWLVKYSPLHNVKLPEADDIQYPSMLLLTADHDDRVVPLHSLKFIATLQYIVGRSRKQSNPLLIHVDTKAGHGAGKPTAKVIEEVSDMFAFIARCLNVDWIP
In the case of B1, the koff (α-synuclein [1]) is reported as 0.00118 s⁻¹ and the Kd (α-synuclein [2]) is reported as 5.32 nM.
